Results taken from patent US20140186897A1, “TRANSFORMANT OF YEAST OF GENUS SCHIZOSACCHAROMYCES, METHOD FOR PRODUCING SAME, METHOD FOR PRODUCING ß-GLUCOSIDASE, AND CELLULOSE DEGRADATION METHOD” (ASAHI GLASS COMPANY, LIMITED, priority 2011, published 2014).

Legend:
[1] = glucosidase activity measurement of culture supernatant (pNPG); type: biochemical; conditions: Example 9, Table 11
Method: A mutant strain which formed a large colony was selected from P3AaBGL1 mutant strain library. Then, thus selected strain and P3ASP3326 strain as the original strain were cultivated in 150 μl/well (96-well plate) of YES medium at 30° C. for two days. 50 μl of each culture supernatant was diluted by 150 μl of 50 mM acetate buffer (pH 5.0) to prepare a diluted enzyme sample. Then, the enzymatic activity of the sample was measured in accordance with the following method.
To 10 μl of 20 mM p-nitrophenyl-β-D-glucoside (hereinafter abbreviated as pNPG), 10 μl of 1M sodium acetate buffer solution (pH 5.0) and 130 μl of water were added, and then 50 μl of the diluted enzyme sample was introduced for reacting them at 37° C. for 10 minutes. 100 μl of the reaction mixture was mixed with 100 μl of 2% sodium carbonate solution to terminate reaction, and then the amount of free p-nitrophenol was colorimetrically measured at a wavelength of 450 nm.
The amount of enzyme that produces 1 μmol of p-nitrophenol per minute was defined as 1 U.
The P3AaBGL1 mutant strain obtained as above was cultivated in YES medium at 30° C. for one day. 100 μl of the culture broth was inoculated on 5 ml of YPD medium (1% of yeast extract, 2% of peptone, and 2% of glucose), followed by cultivation at 30° C. for two days. Thereafter, the culture broth was centrifuged to obtain a culture supernatant.
(§1) By using the above-obtained culture supernatant of the P3AaBGL1 mutant strain, a diluted enzyme sample was prepared, and then the enzymatic activity of the sample was measured in accordance with the above-described activity measurement method. Further, the glucose inhibition at a final glucose concentration of from 0.1 to 200 mM and the thermostability at a warming temperature of from 50 to 75° C. were measured for evaluation.

[2] = glucose inhibition measurement (residual glucosidase activity in the presence of glucose); type: biochemical
Method: To 10 μl of 20 mM pNPG, 10 μl of 1M sodium acetate buffer solution (pH 5.0) and from 4 to 10 μl of 1M glucose (final concentration of from 20 to 50 mM) were added, followed by addition of water up to the total volume of 150 μl. Thereafter, 50 μl of the diluted enzyme sample was introduced for reacting them at 37° C. for 10 minutes. As a control, a glucose-free reaction mixture was used, and then the reaction was carried out at 37° C. for 10 minutes, in the same manner. 100 μl of each reaction mixture was mixed with 100 μl of 2% sodium carbonate solution to terminate reaction, and then the amount of liberated p-nitrophenol was colorimetrically measured at a wavelength of 450 nm.
The ratio (%) of the colorimetric value of each reaction mixture to the colorimetric value of the control sample (glucose-free sample) was defined as the residual activity after glucose inhibition.
as §1
(§2) 11F10 strain, 22A12 strain, 28C02 strain, 29F09 strain and mutBGL1 strain selected from the mutant strains, and ASP3326 strain as the original strain were cultivated in a Sakaguchi flask containing 100 ml of YPD medium at 30° C. for two days. To each of the culture supernatants obtained by cultivating them, […] was added until 80% saturation was reached, thereby to carry out ammonium sulfate precipitation at 4° C. for 2 hours. Thereafter, centrifugation was carried out to collect pellets, and the pellets were dissolved in 10 ml of 10 mM citrate phosphate buffer solution (pH 7.0). Then, desalting and concentration were carried out by using an ultrafiltration membrane having MWCO of 100,000, thereby to recover 1 ml of a crude liquid. Thus recovered crude liquid was purified by using Hitrap QXL column to collect a fraction of a peak of pNPG activity, thereby to obtain a purified sample. Elution was carried out by using a 10 mM citrate phosphate buffer solution (pH 7.0) and a NaCl concentration gradient (0 to 1M).
(§3) In the same manner as in Example 1, the residual glucosidase activities after glucose inhibition at a glucose concentration of from 0.1 to 200 mM were measured. Further, the residual glucosidase activities after heat treatment at a temperature of from 50 to 75° C. for 10 minutes were measured.

[3] = thermostability measurement (residual glucosidase activity after heat treatment); type: physicochemical
Method: To 10 μl of 20 mM pNPG, 10 μl of 1M sodium acetate buffer solution (pH 5.0) and 130 μl of water were added, and then 50 μl of a diluted enzyme sample preliminarily heat-treated at […] for 10 minutes was introduced for reacting them at 37° C. for 10 minutes. As a control, a diluted enzyme sample which was not subjected to the heat treatment was used, and then the reaction was carried out at 37° C. for 10 minutes, in the same manner. 100 μl of each reaction mixture was mixed with 100 μl of 2% sodium carbonate solution to terminate reaction, and then the amount of liberated p-nitrophenol was colorimetrically measured at a wavelength of 450 nm.
The ratio (%) of the colorimetric value of each reaction mixture to the colorimetric value of the control sample (untreated sample) was defined as the residual activity after heat treatment.
as §1, §2, §3

[4] = compared with P3AaBGL1 / β-glucosidase without the mutation

B1: Q156L: modified-type P3AaBGL1 with Q156L only (protein)
chain: MKITAVIALLFSLAAASPIPVADPGVVSVSLKKRADELAFSPPFYPSPWANGQGEWAEAYQRAVAIVSQMTLDEKVNLTTGTGWELEKCVGQTGGVPRLNIGGMCLQDSPLGIRDSDYNSAFPAGVNVAATWDKNLAYLRGQAMGQEFSDKGIDVLLGPAAGPLGRSPDGGRNWEGFSPDPALTGVLFAETIKGIQDAGVVATAKHYILNEQEHFRQVAEAAGYGFNISDTISSNVDDKTIHEMYLWPFADAVRAGVGAIMCSYNQINNSYGCQNSYTLNKLLKAELGFQGFVMSDWGAHHSGVGSALAGLDMSMPGDITFDSATSFWGTNLTIAVLNGTVPQWRVDDMAVRIMAAYYKVGRDRLYQPPNFSSWTRDEYGFKYFYPQEGPYEKVNHFVNVQRNHSEVIRKLGADSTVLLKNNNALPLTGKERKVAILGEDAGSNSYGANGCSDRGCDNGTLAMAWGSGTAEFPYLVTPEQAIQAEVLKHKGSVYAITDNWALSQVETLAKQASVSLVFVNSDAGEGYISVDGNEGDRNNLTLWKNGDNLIKAAANNCNNTIVVIHSVGPVLVDEWYDHPNVTAILWAGLPGQESGNSLADVLYGRVNPGAKSPFTWGKTREAYGDYLVRELNNGNGAPQDDFSEGVFIDYRGFDKRNETPIYEFGHGLSYTTFNYSGLHIQVLNASSNAQVATETGAAPTFGQVGNASDYVYPEGLTRISKFIYPWLNSTDLKASSGDPYYGVDTAEHVPEGATDGSPQPVLPAGGGSGGNPRLYDELIRVSVTVKNTGRVAGDAVPQLYVSLGGPNEPKVVLRKFDRLTLKPSEETVWTTTLTRRDLSNWDVAAQDWVITSYPKKVHVGSSSRQLPLHAALPKVQ
- Activity [1]: 507 mU/ml
- Residual glucosidase activity, Glc 0 mM ([2]; Example 9, glucose 0 mM (reference set to 100)): 100%
- Residual glucosidase activity, Glc 1 mM ([2]; Example 9, glucose 1 mM): 92.8%
- Residual glucosidase activity, Glc 5 mM ([2]; Example 9, glucose 5 mM): 64.9%
- Residual glucosidase activity, Glc 10 mM ([2]; Example 9, glucose 10 mM): 46.8%
- Residual glucosidase activity, Glc 20 mM ([2]; Example 9, glucose 20 mM): 31.5%
- Residual glucosidase activity, Glc 50 mM ([2]; Example 9, glucose 50 mM): 15.5%
- Residual glucosidase activity, Glc 100 mM ([2]; Example 9, glucose 100 mM): 8.8%
- Residual glucosidase activity, Glc 200 mM ([2]; Example 9, glucose 200 mM): 5.4%
- resistance to glucose inhibition (in words) [2, 4]: decrease
- Residual glucosidase activity, Temp 50° C. ([3]; Example 9, 10 minutes at 50° C.): 93.9%
- Residual glucosidase activity, Temp 55° C. ([3]; Example 9, 10 minutes at 55° C.): 89.7%
- Residual glucosidase activity, Temp 60° C. ([3]; Example 9, 10 minutes at 60° C.): 83.9%
- Residual glucosidase activity, Temp 65° C. ([3]; Example 9, 10 minutes at 65° C.): 46.0%
- Residual glucosidase activity, Temp 70° C. ([3]; Example 9, 10 minutes at 70° C.): 6.3%
- Residual glucosidase activity, Temp 73° C. ([3]; Example 9, 10 minutes at 73° C.): 0.9%
- Residual glucosidase activity, Temp 75° C. ([3]; Example 9, 10 minutes at 75° C.): 1.4%
- Residual glucosidase activity, Untreated ([3]; Example 9, no heat treatment (reference set to 100)): 100%
- thermostability (in words) [3, 4]: decrease
